Here are results for two molecules from article PMC3726526, “Structural and Functional Characterization of the Recombinant Death Domain from Death-Associated Protein Kinase” (PLoS ONE, 2013).

This experiment concerns the target T1, GST-ERK2 (extracellular-regulated kinase-2) (human, UniProt P28482 1-360).
T1 construct: full length human ERK2 in pGEX-6-P3, N-terminal GST with a PreScission protease site; The methods and results of the ITC say 'ERK2'; the discussion says that the ITC and CD were done with GST-ERK2; source: E. coli BL21 codon plus; in cell lysate, held on glutathione beads (pull-down); large scale production as previously described [25]; (ITC); not shown: GST, N-terminal, kept
As to the kind of experiment: ITC; VP-ITC, 25 C; 19 injections of 15 ul of 159 uM GB1-DAPk-DD(L) or 250 uM GB1-DAPk-DD(S) into 1.45 ml of 8.85-18.6 uM ERK2; 50 mM HEPES pH 7.5, 50 mM NaCl, 1 mM TCEP, 1 mM EDTA. Particulars: both partners purified. Background: ITC needs no label: the signal is the heat of the interaction.

T1 sequence (P28482 whole entry): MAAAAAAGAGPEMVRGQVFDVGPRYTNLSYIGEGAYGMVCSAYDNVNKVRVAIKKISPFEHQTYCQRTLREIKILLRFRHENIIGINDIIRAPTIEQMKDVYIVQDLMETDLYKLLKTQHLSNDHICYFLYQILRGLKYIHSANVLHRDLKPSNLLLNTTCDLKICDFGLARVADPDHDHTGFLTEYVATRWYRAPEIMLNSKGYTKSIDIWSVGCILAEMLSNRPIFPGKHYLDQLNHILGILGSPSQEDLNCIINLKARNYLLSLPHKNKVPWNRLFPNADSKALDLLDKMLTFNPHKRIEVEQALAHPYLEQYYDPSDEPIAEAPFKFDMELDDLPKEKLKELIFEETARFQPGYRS

B1: GB1-DAPk-DD(S) (domain or fragment, human, UniProt P53355 1293-1399, looked up)
chain: QASLGMDIHASDLNLLTRRKLSRLLDPPDPLGKDWCLLAMNLGLPDLVAKYNTSNGAPKDFLPSPLHALLREWTTYPESTVGTLMSKLRELGRRDAADFLLKASSVF
notes: death domain region of human death-associated protein kinase (DAPk, DAPK1), residues 1293-1399; Cloned between BamHI and XhoI of plasmid GEV2; all experiments were done with the intact GB1 fusion (thrombin not used); Predicted monomer mass 19.6 kDa; By the primers the XhoI site should add Leu-Glu before the His6 tag (surmised); also called short GB1-DAPk-DD construct; full-length DAPk-DD (short …)
A word on the Kd: it is the concentration at which binding is half-saturated. Low values mean a tighter complex, high ones a looser complex. The term stoichiometry N denotes a count of units in the complex or per binding partner. Turning to B1, the affinity, expressed as Kd, was 1770 nM; the dH was -12.7 kcal/mol; the “stoichiometry N” value worked out at 0.97 ± 0.01.

B2: GB1-DAPk-DD(L) (domain or fragment, human, UniProt P53355 1293-1408, looked up)
chain: QASLGMDIHASDLNLLTRRKLSRLLDPPDPLGKDWCLLAMNLGLPDLVAKYNTSNGAPKDFLPSPLHALLREWTTYPESTVGTLMSKLRELGRRDAADFLLKASSVFKINLDGNGQ
notes: death domain region of human death-associated protein kinase (DAPk, DAPK1) with a nine-residue C-terminal extension from the Ser-rich tail, residues 1293-1408; Made by mutagenesis of a GEV vector holding residues 1293-1431; intact GB1 fusion in all experiments; Predicted monomer mass 20.6 kDa; also called long GB1-DAPk-DD construct; full-length DAPk-DD (long variant); source: E. coli BL21 codon …
Consider B2, for which the Kd came to 920 nM, the dH was -9.18 kcal/mol and the “stoichiometry N” value is 1.03 ± 0.01.
